Data set [1] deals with human KATPem (human SUR1-human Kir6.2 fusion construct) (human). The data set is described as follows: cryo-EM structure.
The data set “cryo-EM structure” deals with the molecule itself. The data set can be described thus: cryo-EM structure.

Consider “human KATPem (human SUR1-human Kir6.2 fusion construct) (complex)”, for which the stoichiometry N – broadly, a count of units in the complex or per binding partner – in data set [1] was found to be 4.

B1: human Kir6.2 (natural protein, UniProt Q14654 1-390, looked up)
chain: MLSRKGIIPEEYVLTRLAEDPAKPRYRARQRRARFVSKKGNCNVAHKNIREQGRFLQDVFTTLVDLKWPHTLLIFTMSFLCSWLLFAMAWWLIAFAHGDLAPSEGTAEPCVTSIHSFSSAFLFSIEVQVTIGFGGRMVTEECPLAILILIVQNIVGLMINAIMLGCIFMKTAQAHRRAETLIFSKHAVIALRHGRLCFMLRVGDLRKSMIISATIHMQVVRKTTSPEGEVVPLHQVDIPMENGVGGNSIFLVAPLIIYHVIDANSPLYDLAPSDLHHHQDLEIIVILEGVVETTGITTQARTSYLADEILWGQRFVPIVAEEDGRYSVDYSKFGNTVKVPTPLCTARQLDEDHSLLEALTLASARGPLRKRSVPMAKAKPKFSISPDSLS
With B1, the “stoichiometry N” value in “cryo-EM structure” turned out to be 4.

Values taken from doi:10.1101/199034 (bioRxiv, 2017).
